Experimental data published in the nanobody polyreactivity screen of Harvey et al. (2022).

Assay: yeast display, Sf9 membrane polyspecificity reagent, FACS + sequencing; frameworks hold sequencing errors
Procedure, shortened: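 Sorting gates, low and high (top ~1%), were placed on anti-HA fluorescence to track expression and on streptavidin fluorescence to track reagent binding. A clone's polyreactivity label is taken from the gate it came out of. The reagent was 10% biotinylated, detergent-solubilized Sf9 membrane, applied for 1 hour at 4 °C to galactose-induced yeast display cells.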

Sequence | polyreactivity (PSR sort gate)
QVQLVESGGGLVQAGGSLRLSCAASGITFEKYAMGWYRQAPGKERELVAAITSSGGSTYYADSVKGRFTISRDNAKNTVYLQMNSLKPEDTAVYYCKARYYYADRTSGGYYYWGQGTQVTVSS | high polyreactivity
QVQLVESGGGLVQAGGSLRLSCAASGRIFWRYAMGWYRQAPGKERELVAGITYSGGRTYYADSVKGRFTISRDNAKNTVYLQMNSLTPEDTAVYYCAARGYFDALFDYWGQGTQVTVSS | low polyreactivity
QVQLVESGGGLVQAGGRLRLSCAASGRTFSKYPLGWYRQAPGKERELVAAITSGGGTYYADSVKGRFTFSRDNAKNPVYLQMHSRKPEDTAVYYCAVSGTTVSTYDYWGQCTQVTVSS | low polyreactivity
QVQLVESGGGLEQAGGSLRLSCAASGLTFSVYAMGWYRQAPGKERELVAGITSSGGDTYYADSVKGRLTISRDNAKNTVYLQMNSLKPEDTAVYYCNAKYRTFVSKHDYWGQGTQVTVSS | low polyreactivity
QVQLVESGGGLVQAGGSLRLSCAASGSIFRGYAMGWYRQAPGKERELVAAISIGGRTYYADSVKGRFTISRDNAKNTVYLQMNSLKPEDTAVYYCAVQKPKTGKGKKDTYGRDGYWGQGTQVTVSS | high polyreactivity
QVQLVESGGGLVQAGGILRLSSAASGFTFSRNAMGWYRQAPGKERELVASISGRGGRTYYADSVKGRFTISRDNAKNTVSLQMNSLKPEDTAVYDCAARWRQRKSVRYGQQGYDYWGQGTQVSVSS | high polyreactivity
QVQLVESGGGLVQAGGSLRLSCAASGFTLGYNAMGWYRQAPGTERELVAAITRSGGSTYYADSVKGRFTISRDNAKNTVYLQMNSLKPEDTAVYYCNARSVYGSKQEEYWGQGTQVTVSS | high polyreactivity
QVQLVESGVGLVQAGGSLRLSCAASGRIFYNNVRGWYRQAPGKERELVAGISGNGGSTYYPDSVKGRFTISRDNAKNTVYLQMNSPKPEDTAVYYCAARSSFRTLIFYQKFDYWGQGTQVTVSS | low polyreactivity
QVQLVESGGGLVQAGGSLRLSCAASGRIFYKYAMGWYRQAPGKERELVAAISSGGNTNYADSVKGRFTISRDNAKNTVYLQMNSLKPEDTAVYYCNAKRAYYRGYYPDNYWGQGTQVTVSS | high polyreactivity
QVQLVESGGGLVQAGGSLRLSCAASGITIVNYVMGWYRQAPGKERELVAAISIGGGTYYADSVKGRFTISRDNAKNTVYLQMNSLKPEDTAVYYCNARSEVSYWWGGYWGQGTQVTVSS | low polyreactivity
QVQLVESGGGLVQAGGSLRLSCAASGRTWSNAMGWYRQAPGKERELVAVITWDGVITYYADSVKGRFTISRDNAKNTVYLQMNSLKPEETAVYYCAATVYPGAGDYWGQGTQVTVSS | high polyreactivity
QVQLQESGGGLVQAGGSLRLSCAASGYISHADEMGWYRQAPGKEHELVASISNGGSTNYADSVKGRFTISRDNAKNTVFLQMNSLKSEDTAVYYCAAWTGQVDIHYYWGQGTQVTVSS | low polyreactivity
QVQLVESGGGLVQAGGSLRLSCAASGIIFSGNAMGWYRQAPGKERELVAAITRGGRTYYADSVKGRFTISRDNAKNTVFFQFNSLKPEDTAVYYCGAGYPYSYREYYYWGQGSQVTVSS | high polyreactivity
QVQLVESGGGLVQAGGSLRLSCAASGITFCDNTMGWYRQAPGKERELVAAITYSSTSTYYADSVKGRFTISRDNAKNTVYLQMNSLKTEDTAVYYCAAEGPGDVVSTDYDFWGQGTQVTVSS | low polyreactivity
QVQLVESGGGLVQAGGSLRLSCAASGRTFRRNAMGWYRQAPGKERELVAAISSRGGSTYYADSVKGRFTISRDNAKNSVYLQMNSLKPEDTAVYYCNKGTPPTGTLGDYEYWGQGTQVTVSS | high polyreactivity
QVQLVDSGGGLVQAGGSLRLSCAASGLTFSKYAMGWYRQAPGKERELVSAISRSGGSTYYADSVKGRFTISRDNAKNTVYLQMNSLKPEDTAVYYCAARRLVGAERPGYDYWGQGTQVTVSS | high polyreactivity
QVHLVESGGGFVQAGGSLRLSCAASGSIFVINGMGWYRQAPGKERELVAAISSRGGDTYYADSVKGRFTISRDNAKNTVYLQMNSLKPEDTAVYYCNARYYTSYDYWGQGTKVTVSS | low polyreactivity
QVQLVESGGGLVQAGGSLRLSCAASGFTFAGYAMGWYRLAPGKVRELVAAISWRGGSTYYADSVKGRFTISRDNAKNTVYLQMNSLKPEDTAVYYCAAASRKRTSREPLDYWGQGTQVTVSS | high polyreactivity
QVQLVESGGGLVQAGGSLRLSCAASGSIFLYNAMGWYRPAPRKERELVAAISKSGGSTYYADSVKGRFTISRDNAKNTVYLQMNSLKPEDSAVYYCAAGYGRRIRYGSDYDYWGQGTQVTVSS | low polyreactivity
QVQLVETGGGLVQAGGSLRLSCAASGSTFGTYAMGWDRQAPGKERELVAAISSGDSTTYADSVKGRFTISRDNAKNTVYLQMNSLKPEDTAVYYCAARTFLMRNGGYNYWGQGTQVTVSS | low polyreactivity
QVQLVESVGGLVQAGGSLRLSCASSGSIFEGSAMGRYRQAPGKEMELVASISSGGSTNYADSVKGRFTISRDNAKNTVYLQMNSLKPEDTAVYYCAAEWVWYKWEFEYWGQGTKVTVSS | high polyreactivity
QVQLVESGGGIVQAGASLRLSCSASGFTQYPYTMGWNRHAPGKESELVAAITSSGATTYYADSVKGRFTISRDNAKNTVYLQMNRLKTEVTAVYYCAAGRAAAFGYLGQGTQVTVSS | high polyreactivity

Sequence | polyreactivity (PSR sort gate)
QVQLVESGGGLVQAGGSLRFSCAASGSILSKNAMGWYRQAPGKERELVAAISSGGSTYYADSVKGRFTISRDKAKNTVYLQLNSLKPEDTAVYYCATYCTSVAYHLYYWGQGTQVTVSS | low polyreactivity
QVQLVESGGGLVQAGGSLRLSCAASGGTFTGYAMGWYRQEPGKERELVAGISRSGGSTYYADSVKGRFTISRDNAKNTVYLQMNSLKPEDTAVYYCAKDVLKYRYWYYPGYDYWGQGTQVTVSS | high polyreactivity
QFQLVESGVGLVQAGARLRLSSAASGFTIKYYAMGWYRQAPGKERELVATITRGGSTNYADSVKGRFTISRDNAKNTVYLQMNSLNPEDTAVYYCAKGYPYYYYDYDSWGQGTQVTVSS | high polyreactivity
QVQLVESGGGLVQAGGSLRLSCAASGRILSVYVMGWYRQAPGKERELVAAISRNGGRTYYADSVKGRFTISRDNAKNTVYLQMNSLKPEDTAVYYCAKSQRGTVYSYYYWGQGTQVTVSS | high polyreactivity
QVQLVESGGGLVQAGGSLRLSCAASGSIFKGYAMGWYRQAPGKERELVAAITYSGGGTYYADSVKGRFTISRDNAKNTVYIQMNILKPEDTAVYYCNADRYYPDDLSDGVGTYDYWGQGTQVTVSS | low polyreactivity
QVQLVDSGGGLVQAGGSLRLSCAASGRTFSANAMGWYRQAPGKERELVAGITSRGGGTYYADSVKGRFTISRDNAKNTVYLQMNSLKTEDTAVYYGAKASRYWSLYYWGQGTQVTVSS | high polyreactivity
QVQLVESGGGLVQAGGSLRLSCAASGLIFYTYAMGWYRQAPGNERELVADINRSDGSTYYADSVKGRFTISRDNAKNTVYLQMNSLKPEDTAVYYCAVVGPYYSRFGGRYYYWGQGTQVTVSS | low polyreactivity
QVQRVESGGGLVQAGGSLRLSCAASGSTLGYYTMGWYRQAPGKERELVAAIDWSGGSTYYADSVKGRFTISRDNAKNTGYLQMNSLKPEDTAVYYCNAEPWDPFYSPGRGGMDYWGQGTQVTVSS | low polyreactivity
QVQLVESGGGLVQAGGSLRLSCAASGSTIADKAMGWYRQAPGKERELVAAITRSGVRTYYADSVKGRFTISRDNAKNTVYLQMNSLKPEDTAVYYCAKRTYPSRIYDYWGQGTQVTVSS | low polyreactivity
QVQLVESGGGLVQAGGSLRLSCAASGRLFIIYAMGWYRQAPGKERELVAAINRGATTNYADSVKGRFTISRDNAKYTVYLQMNSLKPEDTAVYYCAARGVAKLRRVGYWGQGTQVTVSS | high polyreactivity
QVQLVESGGGLVQAGGSLRLICAASGSTFRYYAMGWYRQAPGKEREFVAAISLRAGSTYYADSVKGRFTISRDNAKNTVYLQMNSLKPEDTAVYYCAARRASYGTRRYDYWGQGTQVTVSS | high polyreactivity
QVQLVESGGGLVQAGGSLRLSCAASGSIFGYNAMGWYRQAPGKERELVAAIRISTDNTYYADSVKGRFTISRDNAKNTVYLQMNSLKPEDTAVYYCAADEYWWGYYYWGQGSQVTVSS | high polyreactivity
QVQLLESGGGLVQAGGSLRISCAASGRTFTYNAMGWYRQAPGKERELVAAITASGGSTYYADSVKGRFTISRDNAKNTVYLQMNSLKPEDTAVYYCAARWSSPYVKLGYWGQGTQVTVSS | high polyreactivity
QVQLVESGGGLVQAGGSLRLSCAASGSIFRWNAMGWYRQAPGKERELVAAIDSGGSTYADSVKGRFTISRDNAKNTVYLQMNSLKPEDTAVYYCAAEIPDEWPYDYWGQGTQVTVSS | low polyreactivity
QVQLVESGGGLVQAGGSLRLSCAASGSTFGRYVMGWYRQAPGKERELVAAISYSGGRTYYADSVKGRFTISRDNAKNTVYLQMNSLKPEDTAVYYCNKGGIREYDYWGQGTQVTVSS | high polyreactivity
QVQLVESVGGLVQAGGSLRLICAASGFTFRRNAIGWYRQAPGKERELVAAITRSGGITYYADSVKGRFTISRDNAKNTVYLQMNSLKPEDTAVYYCNKQVTGAERFQGHGAYYWGQGTQVTVSS | high polyreactivity
QVQLVESGGGLVQAGGSLRLSCAASGIIFWYYAMGWYRQAPGKERELVAAINSGGSTNYADSVKGRFTISRDNAKNTVYLQMNSLKQEDTAVYYCAARYRWPIPGTQYEYWGQGTQVTVSS | low polyreactivity
QVQLVESGGGLVQAGGSLRLSCAASGSIFKPYAMGWYRQAPGKERELVAAISRSGSTYYADSVKGRFTISRDNAKNTVYLQMNSLKPEDTAVYYCAKDVRPNYYAAFNYWGQGTQVTVSS | low polyreactivity
QVQLVESGGGLVQAGGSLRLSCAASGITFRRNAMGWYRQAPGKERELVAAITSRGGSTYYADSVKGRFTISRDNAKNTVYLQMNSMKPEDTAVYYCNAGGVDRVDRDYWGQGTQVTVSS | high polyreactivity
QVQLVESGGGLVQAGGSLRLSCAASGRTFGRYAMGWYRQAPGKERELVAAISYSTDSTYYADSVKGRFTISRDNAKNTVYLQMNSLKPEDTAVYYCASDSVIVGSYVGDKHDYWGQGTQVTVSW | low polyreactivity
QVQLVESGGGLVQAGCSLRLSCAASGFIFYDYDMGWYRQAPGKERELVAAITYSGGSTYYADSVKGRFTISRDNAKNTVYFQMNSLKPEDTAVYYCAAVKSRYAEAVDYYYWGQGTQVTVSS | low polyreactivity
